From patent publication US20240092853A1 (Hoffmann-La Roche, published 2024) come the findings set out here.

B1: ExplResOnc.P177.0035 (IL2v (consensus all)) (ligand, not shown: large carriers)
chain: APASSSTKKTELQLQELLDDLQMILNGINNYKNPKLTRMLTAKFAMPKKATELKHLQCLEEELKPLEEVLNGAQSKNFHLDPRELIENINVIVLELKGSETTFMCEYADETATIVEFLNHWITFAQSIIETLE
notes: as m20
B2: ExplResOnc.P174.0173 (ligand, not shown: large carriers)
chain: APASSSTKKTETQLQELLDDLHMILNGINNYKNPKLTRMLTAKFAMPKKATELKHLQCLEEELKPLEEVLNGAQSKNFHLDPRELIENINVIVLELKGSETTFMCEYADETATIVEFLNHWITFAQSIIETLE
notes: as m20
B3: ExplResOnc.P173.0087 (ligand, not shown: large carriers)
chain: APASSSTKKTEEQLEQLLDDLENILNGINNYKNPKLTRMLTAKFAMPKKATELKHLQCLEEELKPLEEVLNGAQSKNFHLEPRELIENINVIVLELKGSETTFMCEYADETATIVEFLNHWITFAQSIIETLE
notes: as m20
B4: ExplResOnc.P173.0239 (ligand, not shown: large carriers)
chain: APASSSTKKTELQLQELLLDLEEILNGINNYKNPKLTRMLTAKFAMPKKATELKHLQCLEEELKPLEEVLNGAQSKNFHLHPRELIENINVIVLELKGSETTFMCEYADETATIVEFLNHWITFAQSIIETLD
notes: as m20
B5: ExplResOnc.P173.0371 (ligand, not shown: large carriers)
chain: APASSSTKKTQLQLEELLDDLQQILNGINNYKNPKLTRMLTAKFAMPKKATELKHLQCLEEELKPLEEVLNGAQSKNFHLNPRELIDNINVIVLELKGSETTFMCEYADETATIVEFLNHWITFAQSIIETLD
notes: as m20
B6: ExplResOnc.P173.0156 (ligand, not shown: large carriers)
chain: APASSSTKKTESQLQNLLDDLQEILNGINNYKNPKLTRMLTAKFAMPKKATELKHLQCLEEELKPLEEVLNGAQSKNFHLEPRELIDNINVIVLELKGSETTFMCEYADETATIVEFLNHWITFAQSIIETLE
notes: as m20
B7: ExplResOnc.P173.0182 (ligand, not shown: large carriers)
chain: APASSSTKKTELQLEELLLDLQEILNGINNYKNPKLTRMLTAKFAMPKKATELKHLQCLEEELKPLEEVLNGAQSKNFHLNPRELIENINVIVLELKGSETTFMCEYADETATIVEFLNHWITFAESIIETLE
notes: as m20
B8: ExplResOnc.P177.0156 (ligand, not shown: large carriers)
chain: APASSSTKKTESQLEELLDDLQQILNGINNYKNPKLTRMLTAKFAMPKKATELKHLQCLEEELKPLEEVLNGAQSKNFHLDPRELIENINVIVLELKGSETTFMCEYADETATIVEFLNHWITFAQSIIETLE
notes: as m20
B9: ExplResOnc.P177.0036 (ligand, not shown: large carriers)
chain: APASSSTKKTELQLQELLDDLQMILNGINNYKNPKLTRMLTAKFAMPKKATELKHLQCLEEELKPLEEVLNGAQSKNFHLQPRELIENINVIVLELKGSETTFMCEYADETATIVEFLNHWITFAQSIIETLE
notes: as m20
B10: ExplResOnc.P172.0344 (ligand, not shown: large carriers)
chain: APASSYTKKTQERLEQLLLDLEQILNGINNYKNPKLTRMLTAKFAMPKKATELKHLQCLEEELKPLEEVLNGAQSKNFHLNPRELIENINVIVLELKGSETTFMCEYADETATIVEFLNHWITFAQSIIETLD
notes: as m20
B11: ExplResOnc.P178.0145 (ligand, not shown: large carriers)
chain: APASSSTKKTEEQLENLLLDLQNILNGINNYKNPKLTRMLTAKFAMPKKATELKHLQCLEEELKPLEEVLNGAQSKNFHLEPRELISNINVIVLELKGSETTFMCEYADETATIVEFLNHWITFAQSIIETLE
notes: as m20
B12: ExplResOnc.P174.0040 (ligand, not shown: large carriers)
chain: APASSSTKKTETQLEQLLDDLQEILNGINNYKNPKLTRMLTAKFAMPKKATELKHLQCLEEELKPLEEVLNGAQSKNFHLDPRELIENINVIVLELKGSETTFMCEYADETATIVEFLNHWITFAQSIIETLE
notes: as m20
B13: ExplResOnc.P175.0368 (ligand, not shown: large carriers)
chain: APASSSTKKTTEQLQELLDDLQMILNGINNYKNPKLTRMLTAKFAMPKKATELKHLQCLEEELKPLEEVLNGAQSKNFHLDPRELIENINVIVLELKGSETTFMCEYADETATIVEFLNEWITFAQSIIETLD
notes: as m20
B14: ExplResOnc.P173.0364 (ligand, not shown: large carriers)
chain: APASSSTKKTQLQLEDLLLDLQNILNGINNYKNPKLTRMLTAKFAMPKKATELKHLQCLEEELKPLEEVLNGAQSKNFHLDPRELISNINVIVLELKGSETTFMCEYADETATIVEFLNHWITFAQSIIETLE
notes: as m20
B15: ExplResOnc.P173.0255 (ligand, not shown: large carriers)
chain: APASSSTKKTEDHLQELLLDLEEILNGINNYKNPKLTRMLTAKFAMPKKATELKHLQCLEEELKPLEEVLNGAQSKNFHLNPRELIENINVIVLELKGSETTFMCEYADETATIVEFLNHWITFAQSIIETLE
notes: as m20
B16: ExplResOnc.P173.0127 (ligand, not shown: large carriers)
chain: APASSSTKKTELQLEELLDDLQEILNGINNYKNPKLTRMLTAKFAMPKKATELKHLQCLEEELKPLEEVLNGAQSKNFHLDPRDLIENINVIVLELKGSETTFMCEYADETATIVEFLNHWITFAESIISTLD
notes: as m20
B17: ExplResOnc.P173.0079 (ligand, not shown: large carriers)
chain: APASSSTKKTQLQLEELLDDLEQILNGINNYKNPKLTRMLTAKFAMPKKATELKHLQCLEEELKPLEEVLNGAQSKNFHLDPRELIDNINVIVLELKGSETTFMCEYADETATIVEFLNHWITFAQSIIETLE
notes: soluble pH-dependent IL2v variant in bacterial supernatant, second library
B18: ExplResOnc.P175.0125 (ligand, not shown: large carriers)
chain: APASSSTKKTETQLEELLDDLEMILNGINNYKNPKLTRMLTAKFAMPKKATELKHLQCLEEELKPLEEVLNGAQSKNFHLDPRELIENINVIVLELKGSETTFMCEYADETATIVEFLNHWITFAQSIIETLD
notes: as m20
B19: ExplResOnc.P174.0327 (ligand, not shown: large carriers)
chain: APASSSTKKTEEHLQNLLDDLEQILNGINNYKNPKLTRMLTAKFAMPKKATELKHLQCLEEELKPLEEVLNGAQSKNFHLEPRELIDNINVIVLDLKGSETTFMCEYADETATIVEFLNHWITFAQSIISTLE
notes: as m20
B20: ExplResOnc.P173.0259 (ligand, not shown: large carriers)
chain: APASSSTKKTELQLQELLDDLQMILNGINNYKNPKLTRMLTAKFAMPKKATELKHLQCLEEELKPLEEVLNGAQSKNFHLEPRDLIENINVIVLELKGSETTFMCEYADETATIVEFLNHWITFAQSIIETLE
notes: as m20
B21: ExplResOnc.P174.0326 (ligand, not shown: large carriers)
chain: APASSSTKKTQLQLEELLDDLDQILNGINNYKNPKLTRMLTAKFAMPKKATELKHLQCLEEELKPLEEVLNGAQSKNFHLDPRELIENINVIVLELKGSETTFMCEYADETATIVEFLNHWITFAQSIIETLE
notes: as m20
B22: ExplResIEE.P026.099 (ligand)
chain: APASSSTKKTQEQLEHLLLELQNILNGINNYKNPKLTRMLTAKFAMPKKATELKHLQCLEEELKPLEEVLNGAQSKNFHLNPRELIENINVIVLELKGSETTFMCEYADETATIVEFLNEWIEFAQSIIETLN
notes: soluble pH-dependent IL2v variant in bacterial supernatant, first library; not shown: C-terminal His tag and Flag tag of the phagemid

The target in one test is T1, IL2R(bg)-Fc construct (human IL2R beta extracellular domain fused to Fc(knob) with avi tag, human IL2R gamma … (human, biotin on the C-terminal avi tag (co-expressed BirA))).
T1 construct: Knob-into-hole Fc heterodimer; also called IL2Rβγ; human heterodimeric IL-2 receptor beta/gamma
T1 sequence (chain, as listed by the source limits assumed, chain 1 of 2): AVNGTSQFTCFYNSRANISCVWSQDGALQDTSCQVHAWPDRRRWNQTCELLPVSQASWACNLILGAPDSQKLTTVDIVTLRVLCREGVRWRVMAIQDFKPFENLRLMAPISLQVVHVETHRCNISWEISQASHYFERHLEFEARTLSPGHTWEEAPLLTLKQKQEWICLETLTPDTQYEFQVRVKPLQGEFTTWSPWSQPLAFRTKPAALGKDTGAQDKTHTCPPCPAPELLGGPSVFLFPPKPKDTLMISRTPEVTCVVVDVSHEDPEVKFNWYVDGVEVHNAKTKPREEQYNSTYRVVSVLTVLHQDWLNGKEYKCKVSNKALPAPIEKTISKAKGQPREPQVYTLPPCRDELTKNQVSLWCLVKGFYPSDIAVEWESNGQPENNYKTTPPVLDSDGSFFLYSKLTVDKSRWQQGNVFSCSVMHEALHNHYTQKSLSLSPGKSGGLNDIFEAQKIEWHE
T1 sequence (chain, as listed by the source limits assumed, chain 2 of 2): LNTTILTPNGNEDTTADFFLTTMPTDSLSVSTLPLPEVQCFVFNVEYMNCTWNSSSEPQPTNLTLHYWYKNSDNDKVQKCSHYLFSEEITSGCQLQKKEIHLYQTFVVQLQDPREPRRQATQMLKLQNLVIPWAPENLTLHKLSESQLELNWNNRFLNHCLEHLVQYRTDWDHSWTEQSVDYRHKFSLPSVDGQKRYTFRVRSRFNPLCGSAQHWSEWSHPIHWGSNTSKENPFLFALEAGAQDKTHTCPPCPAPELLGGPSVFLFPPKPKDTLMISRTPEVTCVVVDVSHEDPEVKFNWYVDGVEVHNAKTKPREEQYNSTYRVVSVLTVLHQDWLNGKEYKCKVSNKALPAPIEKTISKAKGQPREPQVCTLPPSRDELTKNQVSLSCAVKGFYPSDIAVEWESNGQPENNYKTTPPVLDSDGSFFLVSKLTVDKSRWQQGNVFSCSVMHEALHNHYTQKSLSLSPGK
Description: ELISA: biotinylated IL2R(bg)-Fc coated on neutravidin plates, clone in bacterial supernatant bound at pH 6, washing and 30 min incubation at pH 6.0, 6.5, 7.0 or 7.4, detection with anti-Flag/HRP; absorption at pH 6 set to 1. The protocol:
FIG. 4. Binding analysis for the second set of selected pH-dependent IL2v variants to IL2Rfβγ at pH 6, pH 6.5, pH 7 and pH 7.4 by ELISA. Bacterial supernatants containing clonal pH-dependent IL2v variants were incubated with previously coated IL2Rfβγ. Prior to the detection by an anti-Flag/HRP secondary antibody, extensive washing for 30 minutes was performed at pH 6 or pH 7.4. The absorption at pH 6 was normalized to a value of 1 and the ratio of absorption levels was compared.
25 μl of 50 nM biotinylated antigen per well were coated at pH 6 on 384-well neutravidin plates and blocked with 2% BSA (50 mM BisTris 140 mM NaCL, 2% BSA, pH 6). Bacterial supernatants containing soluble variants of IL2v were re-buffered to pH 6, added to the plates and incubated for 1 h. Subsequently, several washing steps were performed at either pH 6 or pH 7.4 followed by an incubation step in washing buffer for 30 min at the respective pH. Binding of pH-dependent IL2v variants to the IL2R(bg)-Fc construct was detected via Flag tag by using an anti-Flag/HRP secondary antibody. Comparison of the signal between the two conditions (pH6 vs pH7.4) allowed identifying clones that bind in a pH-dependent manner. The phagemid expressing the parental IL2v construct was used as an internal control for a pH-independent signal. Clones with a binding ratio at pH 6 versus pH 7 that greater than 10 were short-listed and re-tested in order to confirm their pH-dependency.
In order to further characterize the selected pH-dependent IL2v variants, they were analyzed for their binding to IL2R(bg)-Fc under four different pH conditions including pH 6, pH 6.5, pH 7, and pH 7.4. Binding at pH 6 was normalized to 1 in order to better compare binding among all clones. […] In general, binding intensity at pH 7 and pH 7.4 was reduced between 10-100-fold
For the molecule B1, the binding result was “binds”. For B2, the binding result is given as “binds”. Same read-out and setting: the result for B3 reads “binds”; that for B4, “binds”; that for B5, “binds”. Turning to B6, the binding result is on record as “binds”. On the same count and under the same terms, in the case of B7 it was “binds”.

On to B8, for which the binding result is listed as “binds”. For the molecule B9, the binding result is “binds”.

B10: the binding result is “binds”. Still for that read-out and setting: in the case of B11 it was “binds”; in that of B12, “binds”. Same read-out and setting: the result for B13 reads “binds”; that for B14, “binds”; that for B15, “binds”. Turning to B16, the binding result is “binds”. For B17, the binding result was “binds”. On the same count and under the same terms, in the case of B18 it was “binds”; in that of B19, “binds”. On the same count and under the same terms, in the case of B20 it was “binds”; in that of B21, “binds”.

A further test concerns the target T1, IL2R(bg)-Fc construct (human IL2R beta …). Description: ELISA: biotinylated IL2R(bg)-Fc coated on neutravidin plates, clone in bacterial supernatant bound at pH 6, washing and 30 min incubation at pH 6 or pH 7.4, detection with anti-Flag/HRP; absorption at pH 6 set to 1. The protocol: FIG. 3. Binding analysis for the first set of selected pH-dependent IL2v variants to IL2Rfβγ at pH 6 and pH 7.4 by ELISA. Bacterial supernatants containing clonal pH-dependent IL2v variants were incubated with previously coated IL2Rfβγ. Prior to the detection by an anti-Flag/HRP secondary antibody, extensive washing for 30 minutes was performed at pH 6 or pH 7.4. The absorption at pH 6 was normalized to a value of 1 and the ratio of absorption levels was compared.
25 μl of 50 nM biotinylated antigen per well were coated at pH 6 on 384-well neutravidin plates and blocked with 2% BSA (50 mM BisTris 140 mM NaCl, 2% BSA, pH 6). Bacterial supernatants containing soluble variants of IL2v were re-buffered to pH 6, added to the plates and incubated for 1 h. Subsequently, several washing steps were performed at either pH 6 or pH 7.4 followed by an incubation step in washing buffer for 30 min at the respective pH. Binding of pH-dependent IL2v variants to the IL2R(bg)-Fc construct was detected via Flag tag by using an anti-Flag/HRP secondary antibody. Comparison of the signal between the two conditions (pH 6 vs pH 7.4) allowed identifying constructs that bind in a pH-dependent manner. The phagemid expressing the parental IL2v construct was used as an internal pH-independent control. […] (FIG. 3), were selected (SEQ ID NOs 5-19) and converted into one-armed (OA) targeted conjugates.
Background: In an ELISA, binding on a coated surface is turned into a signal by an enzyme label.
Turning to B22, the binding result is given as “binds”.
